For the series, the target named is HsRAD50-head (Homo sapiens, UniProt Q92878;Q92878 1-200;1113-1312). Kind of series: EMSA; Mg-ATP; EMSA: 20 mM Bis-Tris propane pH 8.0, 200 mM NaCl, 0.5 mM TCEP, Mg-ATP added to RAD50, 500 nM DNA duplex; 5% polyacrylamide, 0.5x TBE, 4 C gel run (binding temperature not stated). The settings on record: protein: recombinant; tags: C-terminal 3C site + 2xStrep-II on the 1-200 fragment; chain copies: 2;2; label: 5'-carboxyfluorescein (F) on strand 1; blunt ends; as printed S2 is 47 nt and lacks the G opposite C21 of S1 (1-nt bulge, possibly a misprint).
Chain of HsRAD50-head (Q92878 1-200, chain 1 of 2): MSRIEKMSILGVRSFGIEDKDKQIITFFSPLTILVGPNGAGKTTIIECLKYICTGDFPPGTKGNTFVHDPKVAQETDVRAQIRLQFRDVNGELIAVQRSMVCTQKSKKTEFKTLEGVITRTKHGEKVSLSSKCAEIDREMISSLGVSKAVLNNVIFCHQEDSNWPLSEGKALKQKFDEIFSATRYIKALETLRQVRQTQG
Chain of HsRAD50-head (Q92878 1113-1312, chain 2 of 2): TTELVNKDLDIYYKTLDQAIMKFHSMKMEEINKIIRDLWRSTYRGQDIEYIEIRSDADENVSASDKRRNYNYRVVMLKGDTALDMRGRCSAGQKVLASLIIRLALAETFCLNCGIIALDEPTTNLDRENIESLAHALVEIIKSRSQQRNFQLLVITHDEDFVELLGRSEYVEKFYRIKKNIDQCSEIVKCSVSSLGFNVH

B1: 48-mer DNA duplex (dsDNA)
DNA 1: TAGTGCTGTAGGAGAATATACGGGCTGCTCGTGTTGACAAGTACTGAT
DNA 2: ATCAGTACTTGTCAACACGAGCAGCCCTATATTCTCCTACAGCACTA
In the case of B1, the binding result is recorded as “binds”.
